{"source": "the domain aggregation screens of Martell et al. (2025)"}
{"test": "soluble fraction after stress (log2 fold change); higher = more stays soluble; pooled small domains, quantitative proteomics", "conditions": "stress: pH 4", "method_in_brief": "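Values are on a log2 scale, where higher means more of the domain stayed soluble after pH 4 stress. They are fold changes in the soluble amount of each domain from pooled custom libraries, measured by high-throughput quantitative proteomics. The fold change is taken to reflect aggregation propensity.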"}
{"sequence": "HMITKENYLEKIKEIKVNEFPASMRELYDFFNEATRNGTDWSAYEEGNVKYVVDAYLERLNLLYKSN", "soluble fraction (log2)": -0.892}
{"sequence": "HMITLYIHNLEEVGKRLDHYLVSNLDDHSRSQIQSWIRSGSILVNDRSVKTGYSLELNDQILINPPK", "soluble fraction (log2)": -0.15}
{"sequence": "HMITNSTEIEAMIDSLIKENPEQAEQYRNGNTKVVGWFVGQMMKASKGKANPQVVGDLLAQKLVG", "soluble fraction (log2)": -0.821}
{"sequence": "HMIVAHEINRHLGESDQPVEIPDNRREGAVAELLKTFNNDDAFREMDDGKYEVALDGEKVREAARSLLA", "soluble fraction (log2)": -0.0196}
{"sequence": "HMIVDARNREINLGSHVRYVDTGTVGEVTDSKVENDASWVKIDKTNLWYLANKLELLNDEDFKT", "soluble fraction (log2)": -0.517}
{"sequence": "HMIVDINDVRIDKYIADNTDYSRNLILNLIKNGDILVNDSKIKPSYKVKQGDKITINNVKTD", "soluble fraction (log2)": -0.284}
{"sequence": "HMIVKQPDIRKQELLDIGVRLYFEAGEKGVSIQQVVKQAGVATGLFYYYFSSKDAFLDEALNDYID", "soluble fraction (log2)": -0.0638}
{"sequence": "HMIVLPGEELEVHIVQEGKEDGQGVAYLDDGTMVVVEGGRPYVDSFAYVAVTRVLQTGAGRIIFAHPTR", "soluble fraction (log2)": -0.108}
{"sequence": "HMIYNSGTTDSRGEAIVGGYLVTVTDTDTKDPVANAAVTLHKDNSISIRLPNSRLLDYADQTTVTVQLV", "soluble fraction (log2)": -0.00411}
{"sequence": "HMKAEKEIEKIKFTIYNEFKRKQEENHFLPPWDGTKMLRQFVLGVVANNPKYQHVNTDILYRDLLLLYYQ", "soluble fraction (log2)": -0.166}
{"sequence": "HMKAFTKKELQDLVLNIFRASPTTNYNYKQLYKLIRGKDPEIKTLIIAVLLGLEKNGSILQMRPGKYKFS", "soluble fraction (log2)": -0.268}
{"sequence": "HMKALDTVLSEIPGLGPVRIKQLLKVFGSVDAIRKASLQDLQQIEGIGPKLAQTIYEYFHQP", "soluble fraction (log2)": -0.328}
{"sequence": "HMKALYNLDYEKPLSGSYYTETTARAAVPTDIRKLGLIITYKTDATTNITEQFVGSSISAWTTSGNWKSLG", "soluble fraction (log2)": 0.105}
{"sequence": "HMKAPPLTDREKEILRWVAAGLQNKEIAHKLGISLATVRNHIHNILEKLDVHSKLEAVSLAFRQGWVS", "soluble fraction (log2)": -0.133}
{"sequence": "HMKASEMKKGQTIKIDGVLYVIVDFQHVKLSKGGAVYQTKLRNLAAGGIRDIRIRAEEVLEDA", "soluble fraction (log2)": -0.515}
{"sequence": "HMKDITPASEDQLKAITDLMLKVNGEWSDAFFTFISKKFNHQISSPEQLTTFEANTIIDMLRKKAEG", "soluble fraction (log2)": 0.22}
{"sequence": "HMKDLDSLSQEAKSVYAVFSDKPIHIDDIKRKTGLDFSKLFKAVTELELAELISSGEGKMYSL", "soluble fraction (log2)": -0.858}
{"sequence": "HMKDLTIRQQQFLNYIKDHLSLTGFPPTRSDIANEMGFKSPNAAEDHLRALARKGAIEIVPGTSRGIRLP", "soluble fraction (log2)": 0.0783}
{"sequence": "HMKDMKISTKNLLQELAKNYPDQTSFRKNVIETTARAMGYTGKDFYPLLTTDNRVKIGTYDLATFLRSI", "soluble fraction (log2)": -0.122}
{"sequence": "HMKDNPNETFERIAGKITRTLRSGPVRIQQLDLLFSESAGKVVDVLRAMAENGEVLIKDDTIQLNGNN", "soluble fraction (log2)": -0.261}
{"sequence": "HMKDTFHNLSEEKRERIIRAALGEFAASGYEKATLDGVVQAAGISKGGLYEYISSKEDLFRYLLEYSYD", "soluble fraction (log2)": -1.43}
{"sequence": "HMKDTNENLMKMLALLIHAAKIDENYSDEEKELIVNFAEMSSKENLNREQILSIIKSAEEYE", "soluble fraction (log2)": -0.673}
{"sequence": "HMKEADVRKNEILDAAGILFSEKGYDNTSVTDIMNAVGFAKGTLYHHFKSKEDIMDALIKRQTD", "soluble fraction (log2)": -0.61}
{"sequence": "HMKEAISIYPNPVKDILTIRGMDETSGVSFKLYDVTGNLLLESTHSELDMSGLNRGVYFLDIAGDVRKVVK", "soluble fraction (log2)": -1.07}
{"sequence": "HMKEEDLPREYTDILGNSVHERLNIMIHDIIEHSQDKPEVAMSPEREEAMHGLRRWMFDHVYH", "soluble fraction (log2)": -0.307}
{"sequence": "HMKEEVEILGGKATIYTNDYGVWQFRLWLTTDNKYVRKSLRTKVKDYAITEGEKLYIQIRSDIEKGIKYY", "soluble fraction (log2)": -0.077}
{"sequence": "HMKEEVSVPDIKGMTYEEAEAKLAKYDLEIEKGETVKASEQYEEGQISSQEPEAGSKVKEGSTIVVDVVE", "soluble fraction (log2)": -0.174}
{"sequence": "HMKEFSFNGGKVIMNYEADRIQIKHDSRPNQEVITLMKRNGFKWSPTNQAWQRQITGNAIYVTKNLLKS", "soluble fraction (log2)": -0.0347}
{"sequence": "HMKEGGGYGQLRLKEAAIQHAFDLQNALQFIAERGYQAHENTTLKEAANALNLKPIELLELLKSSQ", "soluble fraction (log2)": -0.574}
{"sequence": "HMKEIDVPNVVGASENAARKLLESYGFQVEVQWENGERVDNAVVKSYSPNGSAKSGSTVTIVLGT", "soluble fraction (log2)": -0.293}
{"sequence": "HMKEINFTIEESAKGRLDKVIAENVADLTRSQVQSLIKKGQILVNDAPTTNRYQVKPNDQVIIKLPDPV", "soluble fraction (log2)": 0.0442}
{"sequence": "HMKEKLGEFENVFLSVDELQKLKSKLGAETESYIERLSNYIASSGKKYKSHYATILSWTQKDTK", "soluble fraction (log2)": -0.644}
{"sequence": "HMKELASKYEISEYMKFLIENLDKSNFFYPIEKRESMINNIFSIYSKADLSKKELNMLWGMLKKLR", "soluble fraction (log2)": -1.06}
{"sequence": "HMKELTELIEKIKLRRLELGLSYQELSDLTGINKSTLQRYETGFIKKVPINQVQIIAKALNVTPGYLMG", "soluble fraction (log2)": -0.718}
{"sequence": "HMKEMTAKQIDMFSDKLSKLESFQSHYIADAGVSVTEYKQAIAAKLQDQFYVEAWGKYLADVGFT", "soluble fraction (log2)": -1.13}
{"sequence": "HMKEPIYQTILSALILELNTNHFRKNDPFYSESELRKKYQVSSTTVVRVLNMLADQGYIYRIQGKGSFVSK", "soluble fraction (log2)": -0.5}
{"sequence": "HMKESFAQLFSLLTPTEQKVAALISQGFSNKDIAAKMFISLSTVKTHTNHIFAKMGVANRNALVAKVNN", "soluble fraction (log2)": -0.0677}
{"sequence": "HMKESRFDYDAVLLYSDKDSITEVKDAVQHLTKEFGSVFTTKKIPEKATFGKLFRIEKGEVNIIEDN", "soluble fraction (log2)": -1.22}
{"sequence": "HMKESRLFRILYYLLQHKKATAPELAEEFEVSVRTIYRDIDYISSAGVPIYATQGKDGGIAILDSF", "soluble fraction (log2)": -0.81}
{"sequence": "HMKETLSINSTDFEVRRSSRRKRISVGFDTGTETFFIAAPTKLAGTDILRILGPQISRLMDRLT", "soluble fraction (log2)": -0.808}
{"sequence": "HMKEVDERPWGKYEVLLDAPDVKVKRITVNPGQRLSYQYHEKRAEVWTVVSGILTIILEDDKLFRG", "soluble fraction (log2)": 0.0694}
{"sequence": "HMKFIPPSLEEARAYFVEKGSSEPEAEKFVNHFDSIGWKVGRARTPMKKWKSAANNWIANNREWNQ", "soluble fraction (log2)": -0.166}
{"sequence": "HMKFKDYYAALGIDRNADLEQIKKAYRKLARQYHPDVSKAPDAEARFKDAAEAYATLKNPEKRAAYDELGS", "soluble fraction (log2)": 0.22}
{"sequence": "HMKFLHLADLHLGKRVNGFSMLEDQAYILRQILTILDDERPDGVLIAGDVYDKPVPPTEAVELLD", "soluble fraction (log2)": -0.632}
{"sequence": "HMKFLYQKAREEIISLIQDGEIKPSEKIMPERELSELLGYNRMTIKKAINSLVAEGVLMKKRGAGTFLLG", "soluble fraction (log2)": -0.45}
{"sequence": "HMKFLYQQVYQDIKDKITSAQYQFGDLLPSEREIGEEYHVDRTTVRKAFSLLVDEGLVEKRAGKGSVVIS", "soluble fraction (log2)": -0.52}
{"sequence": "HMKFTELEQLMLKREINTLADIARVLKTTPQAVSNWKARDQIPYHIVAKINASINKDSNDSSLSI", "soluble fraction (log2)": -0.782}
{"sequence": "HMKFTSEKDISLLELVKAKMGFVSNTKARNVIKIGQIMVSGKVIKIPSTLIKPGTEVELARRV", "soluble fraction (log2)": 0.32}
{"sequence": "HMKFYKMIDESDEKIENPEIMIFQIIELVSSTTYSAIINKEPVDVETLKPYLYQTIRTIIINHQS", "soluble fraction (log2)": -0.582}
{"sequence": "HMKGEKVTKIELSNFIKFLINDLENKGFFNPPEKKDSMIDNIYSIYNKMTLTKKELNMLWGMHKKLK", "soluble fraction (log2)": -0.676}
